Patent publication US20090068182A1 (ARIUS RESEARCH, published 2009)

Assays:
[1] = target: T1, human CD9 (human, UniProt P21926 2-228); test: flow cytometry on non-cancer skin CCD-27sk cells, antibody at 20 micrograms/mL
T1 construct: whole, on cells; Endogenous CD9; It stood on human cell lines (FACS, cell ELISA) and in tissue sections (IHC); For immunoprecipitation and Western blot it was solubilised from BxPC-3 cell lysate (band of about 25 kDa); also called AR40A746.2.3 antigen; IDAC 141204-01 antigen
T1 sequence (looked up): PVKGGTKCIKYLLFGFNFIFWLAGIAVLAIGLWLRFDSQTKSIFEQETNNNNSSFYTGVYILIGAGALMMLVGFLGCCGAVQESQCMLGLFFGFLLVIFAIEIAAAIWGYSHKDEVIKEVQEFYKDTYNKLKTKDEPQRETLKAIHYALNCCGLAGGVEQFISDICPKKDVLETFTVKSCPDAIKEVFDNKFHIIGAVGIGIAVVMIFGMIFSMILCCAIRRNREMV
Experimental: (§1) All cell lines were obtained from the American Type Tissue Collection (ATCC, Manassas, Va.) except for the melanoma cell lines WM9, WM35, WM164, WM451, WM537, WM852, WM983, WM1205 and WM1232 which were obtained from Dr. David Hogg (University of Toronto, Toronto, Canada).
(§2) Cells were prepared for FACS by initially washing the cell monolayer with DPBS (without Ca⁺⁺ and Mg⁺⁺). Cell dissociation buffer (Invitrogen, Burlington, ON) was then used to dislodge the cells from their cell culture plates at 37° C. After centrifugation and collection, the cells were resuspended in DPBS containing MgCl₂ CaCl₂ and 2 percent fetal bovine serum at 4° C. (staining media) and counted, aliquoted to appropriate cell density, spun down to pellet the cells and resuspended in staining media at 4° C. in the presence of the test antibody (AR40A746.2.3) or control antibodies (isotype control, anti-EGFR). Isotype control and the test antibody were assessed at 20 micrograms/mL whereas anti-EGFR was assessed at 5 micrograms/mL on ice for 30 minutes. Prior to the addition of Alexa Fluor 546-conjugated secondary antibody the cells were washed once with staining media. […] Flow cytometric acquisition of the cells was assessed by running samples on a FACSarray™ using the FACSarray™ System Software (BD Biosciences, Oakville, ON). […]

[2] = target: T1, human CD9; test: flow cytometry on prostate cancer PC-3 cells, antibody at 20 micrograms/mL
Experimental: as §1, §2

[3] = target: T2, AR40A746.2.3 antigen (CD9) in rat normal tissues (rat, UniProt P40241 1-226); test: IHC on formalin fixed paraffin embedded normal tissue micro array
T2 construct: whole, on cells; also called rat CD9
T2 sequence (looked up): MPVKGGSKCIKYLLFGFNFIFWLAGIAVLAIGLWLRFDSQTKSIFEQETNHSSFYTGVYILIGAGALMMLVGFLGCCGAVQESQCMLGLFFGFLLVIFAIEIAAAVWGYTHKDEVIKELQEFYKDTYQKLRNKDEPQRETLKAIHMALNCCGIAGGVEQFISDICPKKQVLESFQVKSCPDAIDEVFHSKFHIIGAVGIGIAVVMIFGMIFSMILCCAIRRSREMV
Experimental: (§3) IHC studies were conducted to evaluate the cross reactivity of AR40A746.2.3 to non human species tissues in order to find suitable preclinical toxicology model(s). All tissues used were formalin fixed paraffin embedded. The binding of AR40A746.2.3 to 8 normal tissues of cynomolgus and rhesus monkey (Biochain, CA, USA) and 10 normal tissues of rabbit, rat, mouse and sheep (Zymed laboratories Inc, CA, USA) was performed using tissue micro arrays. Previous experiments were conducted to optimize the IHC binding conditions of the antibody. Tissue sections were deparaffinized by drying in an oven at 58° C. for 1 hour and dewaxed by immersing in xylene 5 times for 4 minutes each in Coplin jars. Following treatment through a series of graded ethanol washes (100 to 75 percent) the sections were re-hydrated in water. The slides were immersed in 10 mM citrate buffer at pH 6 (Dako, Toronto, Ontario) then microwaved at high, medium, and low power settings for 5 minutes each and finally immersed in cold PBS. […] Immunoreactivity of the primary antibodies was detected/visualized with HRP conjugated secondary antibodies as supplied (Dako Envision System, Toronto, Ontario) for 30 minutes at room temperature. […]

[4] = target: T3, AR40A746.2.3 antigen (CD9) in mouse normal tissues (mouse, UniProt P40240 1-226); test: as above
T3 construct: whole, on cells; also called mouse CD9
T3 sequence (looked up): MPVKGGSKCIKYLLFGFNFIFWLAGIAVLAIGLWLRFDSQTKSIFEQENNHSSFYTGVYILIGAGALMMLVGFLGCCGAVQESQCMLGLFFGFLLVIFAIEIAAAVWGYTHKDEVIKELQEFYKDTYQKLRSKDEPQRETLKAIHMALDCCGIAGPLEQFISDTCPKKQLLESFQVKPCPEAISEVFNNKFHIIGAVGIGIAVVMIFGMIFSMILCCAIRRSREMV
Experimental: as §3

[5] = target: T1, human CD9; test: flow cytometry on melanoma WM164 cells, antibody at 20 micrograms/mL
Experimental: as §1, §2

[6] = target: T4, AR40A746.2.3 antigen (CD9) in rhesus monkey normal tissues (rhesus monkey, UniProt I0FWF4 2-228); test: IHC on normal tissue micro arrays, 5 micrograms/mL
T4 construct: whole, on cells; also called rhesus monkey CD9
T4 sequence: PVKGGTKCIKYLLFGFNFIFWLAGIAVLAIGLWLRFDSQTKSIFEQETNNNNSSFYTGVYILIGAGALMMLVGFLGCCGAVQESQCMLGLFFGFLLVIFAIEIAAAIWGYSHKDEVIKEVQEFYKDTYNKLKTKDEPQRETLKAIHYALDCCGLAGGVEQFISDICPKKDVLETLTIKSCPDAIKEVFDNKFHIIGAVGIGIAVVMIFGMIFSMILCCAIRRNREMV
Experimental: as §3

[7] = target: T1, human CD9; test: flow cytometry on colon cancer HT-29 cells, antibody at 20 micrograms/mL
Experimental: (§4) David Hogg (University of Toronto, Toronto, Canada).
(§5) Cells were prepared for FACS by initially washing the cell monolayer with DPBS (without Ca⁺⁺ and Mg⁺⁺). Cell dissociation buffer (Invitrogen, Burlington, ON) was then used to dislodge the cells from their cell culture plates at 37° C. After centrifugation and collection, the cells were resuspended in DPBS containing MgCl₂ CaCl₂ and 2 percent fetal bovine serum at 4° C. (staining media) and counted, aliquoted to appropriate cell density, spun down to pellet the cells and resuspended in staining media at 4° C. in the presence of the test antibody (AR40A746.2.3) or control antibodies (isotype control, anti-EGFR). Isotype control and the test antibody were assessed at 20 micrograms/mL whereas anti-EGFR was assessed at 5 micrograms/mL on ice for 30 minutes. Prior to the addition of Alexa Fluor 546-conjugated secondary antibody the cells were washed once with staining media. The Alexa Fluor 546-conjugated antibody in staining media was then added for 30 minutes at 4° C. The cells were then washed for the final time and resuspended in fixing media (staining media containing 1.5 percent paraformaldehyde). Flow cytometric acquisition of the cells was assessed by running samples on a FACSarray™ using the FACSarray™ System Software (BD Biosciences, Oakville, ON). […]
(§6) FIG. 2 presents the mean fluorescence intensity fold increase above isotype control. […]

[8] = target: T1, human CD9; test: flow cytometry on melanoma WM1232 cells, antibody at 20 micrograms/mL
Experimental: as §1, §2

[9] = target: T1, human CD9; test: flow cytometry on non-cancer lung Hs888.Lu cells, antibody at 20 micrograms/mL
Experimental: as §1, §2

[10] = target: T1, human CD9; test: flow cytometry on melanoma WM537 cells, antibody at 20 micrograms/mL
Experimental: as §1, §2

[11] = target: T1, human CD9; test: flow cytometry on melanoma WM9 cells, antibody at 20 micrograms/mL
Experimental: as §1, §2

[12] = target: T1, human CD9; test: flow cytometry on pancreatic cancer BxPC-3 cells, antibody at 20 micrograms/mL
Experimental: as §1, §2

[13] = target: T1, human CD9; test: flow cytometry on melanoma WM983 cells, antibody at 20 micrograms/mL
Experimental: as §1, §2

[14] = target: T1, human CD9; test: flow cytometry on colon cancer DLD-1 cells, antibody at 20 micrograms/mL
Experimental: as §1, §2

[15] = target: T1, human CD9; test: flow cytometry on ovarian cancer OVCAR-3 cells, antibody at 20 micrograms/mL
Experimental: as §4, §5, §6

[16] = target: T1, human CD9; test: flow cytometry on melanoma A375 cells, antibody at 20 micrograms/mL
Experimental: as §1, §2

[17] = target: T1, human CD9; test: flow cytometry on prostate cancer DU-145 cells, antibody at 20 micrograms/mL
Experimental: as §4, §5, §6

[18] = target: T1, human CD9; test: flow cytometry on colon cancer SW1116 cells, antibody at 20 micrograms/mL
Experimental: as §1, §2

[19] = target: T1, human CD9; test: flow cytometry on breast cancer MCF-7 cells, antibody at 20 micrograms/mL
Experimental: as §1, §2

[20] = target: T1, human CD9; test: flow cytometry on melanoma WM451 cells, antibody at 20 micrograms/mL
Experimental: as §1, §2

[21] = target: T1, human CD9; test: flow cytometry on melanoma A2058 cells, antibody at 20 micrograms/mL
Experimental: as §1, §2

[22] = target: T1, human CD9; test: flow cytometry on breast cancer MDA-MB-231 cells, antibody at 20 micrograms/mL
Experimental: as §1, §2

[23] = target: T1, human CD9; test: flow cytometry on melanoma WM35 cells, antibody at 20 micrograms/mL
Experimental: as §1, §2

[24] = target: T1, human CD9; test: flow cytometry on colon cancer Lovo cells, antibody at 20 micrograms/mL
Experimental: as §4, §5, §6

[25] = target: T1, human CD9; test: flow cytometry on melanoma WM852 cells, antibody at 20 micrograms/mL
Experimental: as §1, §2

B1: AR40A746.2.3 monoclonal antibody (hybridoma IDAC 141204-01) (antibody, V domains shown)
VH: DVQLQESGPGLVKPSQSLSLTCTVTGYSITSDYAWNWIRQFPGNKLEWMGYISYSGFTNYNPSLKSRISITRDTSKNQFFLQLSSVTTEDTATYFCEGGNYRYSWFPYWGQGTLVTVSA
VL: DIQMTQTTSSLSASLGDRVTISCSASQGISNYLNWYQQKPDGNVKLLIYYTSSLHSGVPSRFSGSGSGTDYSLTISNLEPEDIATYYCQQYSKLPYTFGGGTKLEIKR
notes: also called IDAC 141204-01 antibody; mAR40A746.2.3
mean fluorescence intensity fold increase above isotype control [1]: 8.7 fold | mean fluorescence intensity fold increase above isotype control [2]: 37.8 fold | binding result [3]: no binding (tested: 5 micrograms/mL) | binding result [4]: no binding (tested: 5 micrograms/mL) | mean fluorescence intensity fold increase above isotype control [5]: 3.3 fold | binding result [6]: binds | mean fluorescence intensity fold increase above isotype control [7]: 80.5 fold | mean fluorescence intensity fold increase above isotype control [8]: 3.4 fold | mean fluorescence intensity fold increase above isotype control [9]: 20.5 fold | mean fluorescence intensity fold increase above isotype control [10]: 2.6 fold | mean fluorescence intensity fold increase above isotype control [11]: 4.8 fold | mean fluorescence intensity fold increase above isotype control [12]: 18.4 fold | mean fluorescence intensity fold increase above isotype control [13]: 3.9 fold | mean fluorescence intensity fold increase above isotype control [14]: 50.5 fold | mean fluorescence intensity fold increase above isotype control [15]: 64.9 fold | mean fluorescence intensity fold increase above isotype control [16]: 4.7 fold | mean fluorescence intensity fold increase above isotype control [17]: 30.4 fold | mean fluorescence intensity fold increase above isotype control [18]: 13.3 fold | mean fluorescence intensity fold increase above isotype control [19]: 107 fold | mean fluorescence intensity fold increase above isotype control [20]: 7 fold | mean fluorescence intensity fold increase above isotype control [21]: 2.7 fold | mean fluorescence intensity fold increase above isotype control [22]: 19.8 fold | mean fluorescence intensity fold increase above isotype control [23]: 13.8 fold | mean fluorescence intensity fold increase above isotype control [24]: 31.6 fold | mean fluorescence intensity fold increase above isotype control [25]: 4.2 fold
